Numbering of substitutions follows the chain as printed. Names may count otherwise.
B1: LHD101A V69Q (designed binder)
chain: GRQEKVLKSIEETVRKMGVTMETHRSGNEVKVVIKGLHIKQQRQLYRDVRETSKKQGVETEIEVEGDTQTIVVRE
B2: LHD101A_Q42M (designed binder)
chain: B1 chain with Q42M, Q69V
B3: LHD101A_R43V (designed binder)
chain: B1 chain with R43V, Q69V
B4: LHD101A_T70W (designed binder)
chain: B1 chain with Q69V, T70W
B5: 29B53 (designed binder)
chain: SSIFLLSNVDESARQLAEELVREISKKEGTEVRFEKDDGFLTIEVKNLSEERLREIARALQLIVDVANAERVVRERPGSNLAKKALEIILRAAEELAKLPLKASLKAAVIAAELVVREQPGSNLAKKALEIILRAAEELAKLPDPEALKEAVKAAEKVVREQPGSELAKKALEIIERAAEELKKSPDPEAQKEAKKAEQKVREERPGSSGSHHHHHH
notes: also called LHD29B53
B6: 101B14 (designed binder)
single chain, LHD101 chain B fused to DHR14: HHHHHHGSGLNDIFEAQKIEWHEAENLYFQSGSSEEVNERVKQLAEKAKEATDKEEVIEIVKELAELAKQSTDSELVNEIVKQLAEVAKEATDKELVIYIVKILAELAKQSTDSELVNEIVKQLAEVAKEATDKELVIYIVDILLKLAEQADDDELVEEIRKQLEEVAKEATDKELVEIIKAVIVLLVIISVVARMGVTMEIHKSGREVKVVIKGLHESQQEQLLEAVLRAAEEAGVRVRIRFKGDTVTIVVRG
notes: also called LHD101 B14
B7: 202B64 (designed binder)
single chain, LHD202 chain B fused to DHR64: GSSVEFHIVNIDEDVAQLIELAVKLISKEEGTEVRFEKRDGELTIEVKNLHEKDLQLILELIEALLLIARAIELLRQAKEKGSEEDLEKALRTAEESARRLKKVLEKAEKLGNLGVALAAVAGVVLVAELLLRIAKESGSEEALERALRVAEEAARLAKRVLELAEKLGDAEAALLAVELVVRVAELLLRIAKESGSEEALERALRVAEEAARLAKRVLELAEKQGDAEVARRAVELVKRVAELLERIARESGSEEAKERAERVREEARELQERVKELREREGDGSHHWGSGLNDIFEAQKIEWHEGSHHHHHH
notes: also called LHD202 B64
B8: 202B57 (designed binder)
chain: GSSVEFHIVNISEKAAQIIERAVRAISKELGTEVRFEKRDGELTIEVKNLHERRLQEILLLIEAVKLLLLALKAVKEDPSTDALRAVLEAVRFASEVAKRVENPEAVAVLAELVIELALEAVKEDPSTDALRAVLEAVRLASEVAKRVTDADKALKIAKLVIELALEAVKEDPSEEAKRAVEEAKRLAEEVSKRVTDPELSEKIRQLVKELEEEAQKEDPSGSHHWGSGLNDIFEAQKIEWHEGSHHHHHH
B9: LHD101 A10 (designed binder)
single chain, LHD101 chain A fused to DHR10: HHHHHHGSGLNDIFEAQKIEWHEAENLYFQSGSSSEKEELRERLVKIVVENAKRKGDDTEEAREAAREAFELVREAAERAGIDSSEVLELAIRLIKEVVENAQREGYDISEAARAAAEAFKRVAEAAKRAGITSSEVLELAIILIKLVVELAQRKGYDISEAARAAAELFKRLAEALKRAGKTSERALALLILLLAIEILVRDMGVTMETHPSGNEVKVVIKGLHIKQQRQLYRLVREAAKLLGVEVEIEVEGDTVTIVVRGGS
B10: 278B (designed binder)
chain: GGSTVTFDITNIDWKSAELIMLAVYDIAQQEGTDVTFSFKEGELQITVKNLHEKWKRLIEMLIEACRRAQDPDPESLKEAVRIAEELVRLHPGNPLARAALKVILTAAEELAKLPDPEALKEAVKAAEKVVREQPGSNLAKKALEIILRAAEELAKLPDPEALKEAVKAAEKVVREQPGSELAKKALEIIERAAEELKKSPDPEAQKEAKKAEQKVREERPGSGGSGSHHWGSGSHHHHHH
notes: also called LHD278 B; LHD278 chainB
B11: LHD274 A76 (designed binder)
single chain, LHD274 chain A fused to DHR76: GSTTNFHLINGSEEARQVIEEIVEIIARLAGTEVHFEKSDGTLEIRVKNLHEELERLIKELIELALLLQLAKKEAIEEAKKQGNPELVEWVARAAEVVKEVLRVAAEAAGAGNPDLAKAAAELARAVIEAIEEAVKQGNAELVEWVARAAKVAAEVIKVAIQAEKEGNRDLFRAALELVRAVIEAIEEAVKQGNAELVERVARLAKKAAELIKRAIRAEKEGNRDERREALERVREVIERIEELVRQGNGSHHWGSGLNDIFEAQKIEWHEGSHHHHHH
B12: 101B4 (designed binder)
chain: HHHHHHGSGLNDIFEAQKIEWHEAENLYFQSGSYEDECEEKARRVAEKVERLKRSGTSEDEIAEEVAREISEVIRTLKESGSSYEVICECVARIVAEIVEALKRSGTSEDEIAEIVARVISEVIRTLKESGSSYEVICECVARIVAEIVEALKRSGTSEEEIAEIVARVIQEVIRTLKESGSSYEVIRECLRRILEEVIEALKRSGVDSSEIVLIIIKIAVAVMGVTMEEHRSGNEVKVVIKGLHESQQEELLELVLRAAELAGVRVRIRFKGDTVTIVVRG
notes: also called LHD101B4

Columns and labels:
[1] = molecular target: T1, LHD101 chainB; assay: BLI, dissociation rate constant (kdis)
T1 construct: also called LHD101B
T1 chain: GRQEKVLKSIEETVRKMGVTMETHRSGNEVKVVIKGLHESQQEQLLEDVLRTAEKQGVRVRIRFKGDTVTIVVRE
Description: Biolayer interferometry experiments were performed on an OctetRED96 BLI system (ForteBio, Menlo Park, CA). Streptavidin coated biosensors were first equilibrated for at least 10 minutes in Octet buffer (10 mM HEPES pH 7.4, 150 mM NaCl, 3 mM EDTA, 0.05% Surfactant P20) supplemented with 1 mg/ml Bovine Serum Albumin (SigmaAldrich). Enzymatically biotinylated designs were immobilized onto the biosensors by dipping the biosensors into a solution with 10-50 nM protein for 30-120 s. This was followed by dipping in fresh octet buffer to establish a baseline for 120 s. Titration experiments were performed at 25° C. while rotating at 1,000 r.p.m. Association of designs was allowed by dipping biosensors in solutions containing designed protein diluted in octet buffer until equilibrium was approached followed by dissociation by dipping the biosensors into fresh buffer solution in order to monitor the dissociation kinetics. Steady-state and global kinetic fits were performed using the manufacturer's software (Data Analysis 9.1) assuming a 1:1 binding model.

[2] = molecular target: the molecule itself; assay: SEC titration of the protomer alone at several injection concentrations (Superdex 200, normalised A230); self-association
[3] = molecular target: T2, DF202; assay: SEC of mixed components; trimer listed in Table 6
T2 construct: Bivalent connector
T2 chain: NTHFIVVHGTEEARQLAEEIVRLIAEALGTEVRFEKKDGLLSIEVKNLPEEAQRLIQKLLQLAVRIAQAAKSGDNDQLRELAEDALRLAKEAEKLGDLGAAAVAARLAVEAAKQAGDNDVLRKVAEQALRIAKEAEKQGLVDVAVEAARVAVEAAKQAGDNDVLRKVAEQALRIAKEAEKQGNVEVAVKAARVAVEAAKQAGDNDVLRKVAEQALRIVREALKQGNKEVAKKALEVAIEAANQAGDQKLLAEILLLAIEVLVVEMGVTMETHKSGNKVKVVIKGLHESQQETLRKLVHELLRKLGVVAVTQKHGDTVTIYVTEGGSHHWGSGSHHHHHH
Description: (§1) Complexes and individual components were diluted in 20 mM Tris pH 8.0, 100 mM NaCl. After o/n equilibration of the mixtures at room temperature or 4 degrees C., 500 ul of sample was injected onto a Superdex™ 200 10/300 increase GL (dimers, linear assemblies) or Superose™ 6 increase 10/300 GL (symmetric assemblies) (all columns from GE healthcare) using the absorbance at 230 nm or 473 nm (for GFP tagged components) as read-out. Dimers were mixed at monomer concentrations of 5 μM or higher. Trimer and ABCD tetramer mixtures contained 5 μM of the bivalent connector, and 7.5 μM of each terminal cap (lower absolute concentrations with the same ratios were used for some trimers). ABCA tetramer mixtures contained 5 μM per bivalent connector and 15 μM terminal cap. The hexamer mixture contained 3 μM of components C and D, 3.6 μM of B and E, and 4.4 μM of A and F. The branched assembly shown in FIG. 4A contained 2.8 μM of the trivalent connector and 4 μM of each cap. For the exchange experiment shown in FIG. 5A, the ABC trimer was preincubated at concentrations of 6 μM B and 9 μM each of A and C. C′ was then added to reach a final concentration of 2 μM B, 3 μM each of A and C, and 6 μM C′.

[4] = molecular target: B6; assay: SEC binding assay (Superdex 200, normalised A230) of A, B and the mixture AB
Description: as §1

[5] = molecular target: T3, 101B62; assay: as above
T3 construct: also called LHD101B62
T3 chain: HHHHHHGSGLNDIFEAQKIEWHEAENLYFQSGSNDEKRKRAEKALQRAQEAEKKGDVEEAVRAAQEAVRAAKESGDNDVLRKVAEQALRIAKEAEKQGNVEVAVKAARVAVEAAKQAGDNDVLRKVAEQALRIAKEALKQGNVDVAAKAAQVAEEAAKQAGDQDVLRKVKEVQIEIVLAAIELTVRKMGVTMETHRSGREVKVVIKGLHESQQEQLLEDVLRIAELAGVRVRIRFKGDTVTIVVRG
Description: as §1

[6] = molecular target: T4, 274B53; assay: as above
T4 construct: also called LHD274B DHR53 stop
T4 chain: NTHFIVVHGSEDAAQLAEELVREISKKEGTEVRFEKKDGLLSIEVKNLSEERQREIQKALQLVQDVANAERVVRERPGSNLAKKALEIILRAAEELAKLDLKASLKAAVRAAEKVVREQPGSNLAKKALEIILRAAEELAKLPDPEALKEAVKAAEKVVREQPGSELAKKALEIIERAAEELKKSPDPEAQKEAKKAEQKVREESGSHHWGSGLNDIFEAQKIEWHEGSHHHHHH
Description: as §1

[7] = molecular target: T5, LHD101 chainA; assay: BLI steady-state titration, biotinylated unfused LHD101A on a streptavidin sensor
T5 construct: also called LHD101A
T5 chain: B1 chain with Q69V
Source text: FIG. 8A-E. Characterization LHD binding in vitro. A: Designed models heterodimers (top row). Middle row, SEC binding experiments performed on a Superdex™ 75 column. Bottom row, biolayer interferometry kinetic binding traces. […] C: Kinetic binding traces from BLI. Equilibrium responses were used to fit equilibrium binding curves D: Equilibrium binding curves of LHDs from biolayer interferometry binding assays with data from C. […] Biotinylated unfused protomers were immobilized on streptavidin coated biosensors.
Biolayer interferometry experiments were performed on an OctetRED96 BLI system (ForteBio, Menlo Park, CA). Streptavidin coated biosensors were first equilibrated for at least 10 minutes in Octet buffer (10 mM HEPES pH 7.4, 150 mM NaCl, 3 mM EDTA, 0.05% Surfactant P20) supplemented with 1 mg/ml Bovine Serum Albumin (SigmaAldrich). Enzymatically biotinylated designs were immobilized onto the biosensors by dipping the biosensors into a solution with 10-50 nM protein for 30-120 s. This was followed by dipping in fresh octet buffer to establish a baseline for 120 s. Titration experiments were performed at 25° C. while rotating at 1,000 r.p.m. […]

| Binder | koff [1] | binding result [2] | further results |
| --- | --- | --- | --- |
| B1 | 0.00653 s⁻¹ |  |  |
| B2 | 0.00941 s⁻¹ |  |  |
| B3 | 0.0113 s⁻¹ |  |  |
| B4 | 0.0102 s⁻¹ |  |  |
| B5 |  | binds |  |
| B6 |  | no binding (tested: 114.0 uM) |  |
| B7 |  | binds |  |
| B8 |  |  | binding result [3]: binds |
| B9 |  |  | binding result [4]: binds; binding result [5]: binds |
| B10 |  | binds |  |
| B11 |  |  | binding result [6]: binds |
| B12 |  |  | binding result [7]: binds |

— patent US20240368233A1 (University of Washington, published 2024)
